# From the supplement of paper PMC7125110
# ± gives the standard error. Fewer inactive variants are shown than the library holds.
# B1: glmS ribozyme (parent)
# chain: AUAAAAGCGCCAGAACUACAGAAAUGUAGUUGACGAGGAGGAGGUUUAUCGAAUUUUCGGCGGAUGCCUCCAAA
# Legend:
# Conditions in all cases: with glucosamine-6-phosphate
# glucosamine-6-phosphate [1] = variants of: B1; assay: self-cleavage kobs at 640 uM GlcN6P; higher = faster cleavage; RNA array
# Summary of the method: (§1)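 Using a hybridised Cy3 probe at 37 °C, barcoded ribozyme variants transcribed in situ by E. coli RNA polymerase on sequenced MiSeq chips were monitored across tiles imaged over ~14 h. The flow contained glucosamine-6-phosphate from 40 μM to 10 mM in HEPES/KCl/Mg(OAc)2 buffer. Signals were normalised to baseline and to non-cleaving reference variants before per-tile medians were fit to one- or two-exponential decays to yield kobs. Weighted Michaelis–Menten fits across concentrations gave kcat and KM.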
# glucosamine-6-phosphate [2] = variants of: B1; assay: self-cleavage kobs at 2500 uM GlcN6P; higher = faster cleavage; RNA array
# Summary of the method: as §1
# glucosamine-6-phosphate [3] = variants of: B1; assay: self-cleavage kobs at 10000 uM GlcN6P; higher = faster cleavage; RNA array
# Summary of the method: as §1
# glucosamine-6-phosphate [4] = variants of: B1; assay: self-cleavage kobs at 160 uM GlcN6P; higher = faster cleavage; RNA array
# Summary of the method: as §1
Variant,self-cleavage kobs at 640 uM GlcN6P (glucosamine-6-phosphate [1]) [s⁻¹],self-cleavage kobs at 2500 uM GlcN6P (glucosamine-6-phosphate [2]) [s⁻¹],self-cleavage kobs at 10000 uM GlcN6P (glucosamine-6-phosphate [3]) [s⁻¹],self-cleavage kobs at 160 uM GlcN6P (glucosamine-6-phosphate [4]) [s⁻¹]
A12C A15U A39G,0.000865 ± 0.00025,0.00201 ± 0.00075,0.003 ± 0.00075,
C11G G44U U46G U47A G59A A64U C67A,< 1e-05,,,
C10U A12G U31A A36C C58A,,,,< 1e-05
A15G G63A U69G,0.000141 ± 4.8e-05,,,4.54e-05 ± 2e-05
G7U G32U A33C U47A G59A,,,,< 1e-05
G9A A12G A14G G35U,,< 1e-05,,< 1e-05
C8A C11U A36G,< 1e-05,< 1e-05,,
C10A U55A C67G,0.000418 ± 0.00019,,,6.55e-05 ± 3e-05
U30G C34A,< 1e-05,< 1e-05,,< 1e-05
G40C C50U G60C,< 1e-05,,< 1e-05,
G9C U45A U47C C68G,< 1e-05,< 1e-05,,< 1e-05
G32A G51C,< 1e-05,< 1e-05,,< 1e-05
A15G C34A A64C,< 1e-05,,,
A36G A42C U57C G59U,< 1e-05,< 1e-05,,
A15G U46G G66A C68U,0.000307 ± 0.00014,0.00078 ± 0.00029,,6.94e-05 ± 1.7e-05
U31A G43C U45G A52U C70U,< 1e-05,,,
A42C A53U U56G,< 1e-05,,,
G35A U46C U65A,< 1e-05,,< 1e-05,
U31C G41A G59U,< 1e-05,< 1e-05,,< 1e-05

Variant,self-cleavage kobs at 640 uM GlcN6P (glucosamine-6-phosphate [1]) [s⁻¹],self-cleavage kobs at 2500 uM GlcN6P (glucosamine-6-phosphate [2]) [s⁻¹],self-cleavage kobs at 10000 uM GlcN6P (glucosamine-6-phosphate [3]) [s⁻¹],self-cleavage kobs at 160 uM GlcN6P (glucosamine-6-phosphate [4]) [s⁻¹]
C11G A14G G29A,,,,< 1e-05
G7U A12U C67U,< 1e-05,,,< 1e-05
C34G U47A,< 1e-05,< 1e-05,,< 1e-05
G32A U54A C68A,0.000374 ± 0.00012,0.000108 ± 4.1e-05,,
U30G U31G C50A A52U G62U,,,,< 1e-05
C11G U31C C71U,,< 1e-05,,< 1e-05
U30G U57C G62C,< 1e-05,,,< 1e-05
C8G C71G,< 1e-05,< 1e-05,< 1e-05,< 1e-05
G9A A36U C68U,< 1e-05,,,< 1e-05
C8G G35U G66A,< 1e-05,,,< 1e-05
U31A U56G C58G,9.04e-05 ± 1.6e-05,0.000252 ± 5e-05,,
C34U U56C,< 1e-05,< 1e-05,< 1e-05,< 1e-05
G7U A12G A48U G63U,< 1e-05,,,
C8A U31G C61A,< 1e-05,,< 1e-05,
G41U C68U U69C,< 1e-05,< 1e-05,,< 1e-05
C11A U54G C67G C71A,0.0001 ± 4e-05,0.000224 ± 8.9e-05,,
A36C G41C,< 1e-05,< 1e-05,< 1e-05,< 1e-05
G9U G62C C67U,< 1e-05,< 1e-05,,
G9A A12U U49A,< 1e-05,< 1e-05,,

Variant,self-cleavage kobs at 640 uM GlcN6P (glucosamine-6-phosphate [1]) [s⁻¹],self-cleavage kobs at 2500 uM GlcN6P (glucosamine-6-phosphate [2]) [s⁻¹],self-cleavage kobs at 10000 uM GlcN6P (glucosamine-6-phosphate [3]) [s⁻¹],self-cleavage kobs at 160 uM GlcN6P (glucosamine-6-phosphate [4]) [s⁻¹]
G62C U65G,< 1e-05,,,< 1e-05
G7A G41U,< 1e-05,,< 1e-05,< 1e-05
C50U U56C C67U,,,,< 1e-05
C34U C67A,,< 1e-05,,< 1e-05
A15G U31A G35U C67G,< 1e-05,< 1e-05,,< 1e-05
U31C U69A,,5.91e-05 ± 1.4e-05,,4.12e-05 ± 1.4e-05
A12U A15C U45C A48C,,< 1e-05,,< 1e-05
C8A A12C G13A,< 1e-05,,,
A36U G43A,< 1e-05,< 1e-05,< 1e-05,
C10U G13U A42U U46G U57A,< 1e-05,< 1e-05,,< 1e-05
A15U U45A G66U,4.46e-05 ± 1.6e-05,,,
A42C C67U C71G,< 1e-05,,,
G9A U49A,< 1e-05,< 1e-05,,< 1e-05
A12G G40U G62A,,,,< 1e-05
A6C G41A C68A U69C,< 1e-05,,< 1e-05,
C16G U45A C58A,6.95e-05 ± 1.6e-05,0.000197 ± 3.9e-05,,
A48C C58G C71A,< 1e-05,,,< 1e-05
A42U U47C A52C,,< 1e-05,,< 1e-05
C11A A15U C70G,0.000432 ± 0.00013,,,4.95e-05 ± 1.9e-05
